PMC7293015 (Nucleic Acids Research, 2020)

T1: AfBax1 mutant D133A/E135A (Archaeoglobus fulgidus, UniProt O29890 1-468, D133A | E135A)
T1 construct: Expression and purification of the mutants are not described; also called AfBax1 with substitutions D133A/E135A
T1 sequence: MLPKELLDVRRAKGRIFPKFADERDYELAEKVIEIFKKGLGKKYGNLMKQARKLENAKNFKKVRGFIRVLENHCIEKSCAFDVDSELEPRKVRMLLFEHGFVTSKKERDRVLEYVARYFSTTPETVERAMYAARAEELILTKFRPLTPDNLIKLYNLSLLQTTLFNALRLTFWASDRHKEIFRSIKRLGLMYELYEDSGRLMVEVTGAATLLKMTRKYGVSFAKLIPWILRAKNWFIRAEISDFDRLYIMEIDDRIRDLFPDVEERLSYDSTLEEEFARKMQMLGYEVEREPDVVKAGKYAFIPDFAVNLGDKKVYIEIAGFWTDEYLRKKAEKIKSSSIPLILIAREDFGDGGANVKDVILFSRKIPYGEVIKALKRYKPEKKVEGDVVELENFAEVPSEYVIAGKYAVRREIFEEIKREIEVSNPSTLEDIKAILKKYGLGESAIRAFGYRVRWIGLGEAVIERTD

T2: StBax1 mutant R86A/R87A (Sulfolobus tokodaii, UniProt Q970I1 1-481, R86A | R87A)
T2 construct: Expression and purification of the mutants are not described
T2 sequence: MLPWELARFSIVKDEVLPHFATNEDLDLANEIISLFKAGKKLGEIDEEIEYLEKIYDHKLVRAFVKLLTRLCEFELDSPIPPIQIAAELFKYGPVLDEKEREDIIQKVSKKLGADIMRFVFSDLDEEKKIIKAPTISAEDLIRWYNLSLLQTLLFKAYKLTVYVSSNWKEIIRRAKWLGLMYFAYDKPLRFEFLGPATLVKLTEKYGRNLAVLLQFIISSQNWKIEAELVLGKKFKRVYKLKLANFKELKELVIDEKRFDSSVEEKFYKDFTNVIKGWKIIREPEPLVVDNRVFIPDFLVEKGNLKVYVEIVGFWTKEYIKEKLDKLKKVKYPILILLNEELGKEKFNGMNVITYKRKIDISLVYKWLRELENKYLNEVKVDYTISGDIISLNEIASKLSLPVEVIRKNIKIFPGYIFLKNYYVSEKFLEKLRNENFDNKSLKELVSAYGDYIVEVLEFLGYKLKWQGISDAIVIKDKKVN

B1: His6-AfBax1 (Archaeoglobus fulgidus Bax1) (enzyme)
chain: MLPKELLDVRRAKGRIFPKFADERDYELAEKVIEIFKKGLGKKYGNLMKQARKLENAKNFKKVRGFIRVLENHCIEKSCAFDVDSELEPRKVRMLLFEHGFVTSKKERDRVLEYVARYFSTTPETVERAMYADREEELILTKFRPLTPDNLIKLYNLSLLQTTLFNALRLTFWASDRHKEIFRSIKRLGLMYELYEDSGRLMVEVTGAATLLKMTRKYGVSFAKLIPWILRAKNWFIRAEISDFDRLYIMEIDDRIRDLFPDVEERLSYDSTLEEEFARKMQMLGYEVEREPDVVKAGKYAFIPDFAVNLGDKKVYIEIAGFWTDEYLRKKAEKIKSSSIPLILIAREDFGDGGANVKDVILFSRKIPYGEVIKALKRYKPEKKVEGDVVELENFAEVPSEYVIAGKYAVRREIFEEIKREIEVSNPSTLEDIKAILKKYGLGESAIRAFGYRVRWIGLGEAVIERTD
notes: residues 1-467 are seen in the crystal of the untagged form; Used in ITC as His6-AfBax1; also called wild type AfBax1; source: E. coli Rosetta, from pET-28b, purified in the same way as His6-AfXPB

Experiments:
[1] = target: StBax1 mutant L89A/F90A/P94S/V95S (Sulfolobus tokodaii) (UniProt Q970I1); assay: ITC; His6-StXPB (30 uM) injected into His6-StBax1 (3 uM); 16 injections of 2.36 ul; 40 C; 10 mM Tris-Cl pH 7.5, 200 mM NaCl, 5% glycerol, 0.01% sodium azide; single binding site fit; similar procedures for mutants
[2] = target: T1, AfBax1 mutant D133A/E135A; assay: ITC; His6-AfXPB (139.5 uM) or His6-AfXPB-CTD (202 uM) injected into His6-AfBax1 (13.3 uM); 16 injections of 2.36 ul; 40 C; 10 mM Tris-Cl pH 7.5, 500 mM NaCl, 5% glycerol, 0.01% sodium azide; single binding site fit; similar procedures for mutants; conditions: both partners purified
[3] = target: B1; assay: as above; conditions: both partners purified
[4] = target: the molecule itself; assay: SEC; S200 size-exclusion chromatography of the proteins alone and mixed; calibrated with Conalbumin (75 kDa), Ovalbumin (44 kDa) and Lactalbumin (14 kDa)
[5] = target: T2, StBax1 mutant R86A/R87A; assay: ITC; His6-StXPB (30 uM) injected into His6-StBax1 (3 uM); 16 injections of 2.36 ul; 40 C; 10 mM Tris-Cl pH 7.5, 200 mM NaCl, 5% glycerol, 0.01% sodium azide; single binding site fit; similar procedures for mutants; conditions: both partners purified

Kd [3] | stoichiometry N [3] | Molecule | stoichiometry N [4] | further results
– | – | His6-StXPB (Sulfolobus tokodaii XPB, XPBII) (from UniProt Q970I2 1-439) (enzyme) | – | stoichiometry N [1]: 1
15.2 nM | 1 | His6-AfXPB (Archaeoglobus fulgidus XPB) (enzyme, UniProt O29889 1-452, looked up, residues 1-445 and 17 residues of the N-terminal His6 tag are seen in the crystal; also called full length AfXPB; source: E. coli Rosetta (DE3) pLysS, purified (heat step, HisTrap, HiTrap SP, Sephacryl S-200); not shown: His6, N-terminal, kept) MQMIAEIYYERGTIVVKGDAHVPHAKFDSRSGTYRALAFRYRDIIEYFESNGIEFVDNAADPIPTPYFDAEISLRDYQEKALERWLVDKRGCIVLPTGSGKTHVAMAAINELSTPTLIVVPTLALAEQWKERLGIFGEEYVGEFSGRIKELKPLTVSTYDSAYVNAEKLGNRFMLLIFDEVHHLPAESYVQIAQMSIAPFRLGLTATFEREDGRHEILKEVVGGKVFELFPDSLAGKHLAKYTIKRIFVPLAEDERVEYEKREKVYKQFLRARGITLRRAEDFNKIVMASGYDERAYEALRAWEEARRIAFNSKNKIRKLREILERHRKDKIIIFTRHNELVYRISKVFLIPAITHRTSREEREEILEGFRTGRFRAIVSSQVLDEGIDVPDANVGVIMSGSGSAREYIQRLGRILRPSKGKKEAVLYELISRGTGEVNTARRRKNAAKGAA | – | Kd [2]: 157 nM; stoichiometry N [2]: 1
– | – | His6-StBax1 (Sulfolobus tokodaii Bax1) (enzyme, UniProt Q970I1 1-481, looked up, Homodimer when alone in solution (size-exclusion chromatography); one copy in the heterodimer with StXPB; source: E. coli Rosetta (DE3) pLysS, from pET15b, purified (heat step, ammonium sulfate, HisTrap, gel filtration)) MLPWELARFSIVKDEVLPHFATNEDLDLANEIISLFKAGKKLGEIDEEIEYLEKIYDHKLVRAFVKLLTRLCEFELDSPIPPIQIRRELFKYGPVLDEKEREDIIQKVSKKLGADIMRFVFSDLDEEKKIIKAPTISAEDLIRWYNLSLLQTLLFKAYKLTVYVSSNWKEIIRRAKWLGLMYFAYDKPLRFEFLGPATLVKLTEKYGRNLAVLLQFIISSQNWKIEAELVLGKKFKRVYKLKLANFKELKELVIDEKRFDSSVEEKFYKDFTNVIKGWKIIREPEPLVVDNRVFIPDFLVEKGNLKVYVEIVGFWTKEYIKEKLDKLKKVKYPILILLNEELGKEKFNGMNVITYKRKIDISLVYKWLRELENKYLNEVKVDYTISGDIISLNEIASKLSLPVEVIRKNIKIFPGYIFLKNYYVSEKFLEKLRNENFDNKSLKELVSAYGDYIVEVLEFLGYKLKWQGISDAIVIKDKKVN | 2 | –
0.5 nM | 1 | His6-AfXPB C-terminal half (residues 234-452) (domain or fragment, Archaeoglobus fulgidus, UniProt O29889 234-452, looked up, also called AfXPB-CTD; His6-AfXPB-CTD; source: purified) LAGKHLAKYTIKRIFVPLAEDERVEYEKREKVYKQFLRARGITLRRAEDFNKIVMASGYDERAYEALRAWEEARRIAFNSKNKIRKLREILERHRKDKIIIFTRHNELVYRISKVFLIPAITHRTSREEREEILEGFRTGRFRAIVSSQVLDEGIDVPDANVGVIMSGSGSAREYIQRLGRILRPSKGKKEAVLYELISRGTGEVNTARRRKNAAKGAA | – | –
– | – | B1 | 2 | –
– | – | StXPB mutant E357A/E360A (enzyme, Sulfolobus tokodaii, Expression and purification of the mutants are not described) MVYLRYFKGLILSDAYAPGLKWSDELKAYSALAFKYRDVRKYFLEKEIEVEENVIDSLPFPLIKDKIELRDYQAEAVKAWLKEKRGIIVLPTGAGKTQVALKIVSIMKVATLIVVPTIDLITQWKERINKYLDFDPGIIGGGEDSLKGITVITYDSAYTRAEELGNKFPLLIFDEVHHLPSEGYSIMAQLFASPYRLGLTATPERDDGKHELYPILVGPIVYRKSVEELAGKYIAKYKIKKLYVSLTNEEKKRYDGLRKKLKDFLSSRGLKLQNLDDFHRLVKLAAKDKEAREALLAWHESLNIAVNSQSKIEKLREILQEYKNEKIIVFTRDTQMAYRISKTFLIPVVTYKTDKDAREAILQKFRDGEYRVIVASTVFDEGVDVPDATLAIVMGGYGTKRQFLQRLGRILRKKDKEALLIEIVTKGTADYRLSRRRRE | – | Kd [5]: 64.9 nM; stoichiometry N [5]: 1
